In article PMC2525512:

Target: T1, murine OX40-human IgG Fc fusion (extracellular portion) (Mus musculus, UniProt P47741 20-211)
T1 sequence: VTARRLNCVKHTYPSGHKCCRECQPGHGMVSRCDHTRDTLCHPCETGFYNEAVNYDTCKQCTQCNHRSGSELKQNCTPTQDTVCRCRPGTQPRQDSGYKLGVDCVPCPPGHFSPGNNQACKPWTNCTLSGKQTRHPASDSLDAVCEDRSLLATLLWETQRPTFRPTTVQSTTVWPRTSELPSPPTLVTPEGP
Assay: filter binding

B1: aptamer 9.8PM (point mutant) (structured_RNA)
RNA: GGGAGGACGAUGCGGCAGUCUGCAUCGUAGGAUUAGCCACCGUAUACUUUCCCACCAGACGACUCGCUGAGGAUCCGAGA
modifications: 2'-fluoro pyrimidines, 2'-OH purines
  binding result: no binding
